Results as given in patent publication US10472401B2, “Peptides and combination of peptides for use in immunotherapy against ovarian cancer and other cancers” (immatics biotechnologies GmbH, priority 2015, dated 2019).

Target: HLA-A*02:01 (Homo sapiens, UniProt P04439, D140Y/D185E/D98H/E176V/E277Q/G131W/G231S/I119V/I121R/I166T/I218V/L300P/L318F/N151K/N90K/P208A/P217A/Q86G/Q94H/R138H/R169H/T345S)
Assay: MHC binding assay (UV-ligand exchange, ELISA of stabilized MHC complexes)
Settings: MHC class I binding score; binding to HLA-A*02:01 ranged by peptide exchange yield (UV-ligand exchange, ELISA)
Procedure, shortened: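 Binding scored as exchange yield, detected via β2m of stabilized complexes in an HRP/TMB ELISA read at 450 nm after streptavidin capture of 100-fold diluted monomers for 1 h at 37 °C. Complexes came from UV irradiation cleaving a photolabile peptide, exchanged for the candidate.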

| Substance | Peptide exchange |
| --- | --- |
| 305 (SIANFSEFYV; listed as Homo sapiens) [compound 305] | ″++++″ (≥75% = ++++) |
| 333 (FLPDANSSV; listed as Homo sapiens) [compound 333] | ″++″ (≥20% = ++) |
| 86 (NLIGKIENV; listed as Homo sapiens) [compound 86] | ″+++″ (≥50% = +++) |
| 383 (ALLELENSVTL; listed as Homo sapiens) [compound 383] | ″+++″ (≥50% = +++) |
| 68 (SLMELPRGLFL; listed as Homo sapiens) [compound 68] | ″++++″ (≥75% = ++++) |
| 396 (ALLPDLPAL; listed as Homo sapiens) [compound 396] | ″+++″ (≥50% = +++) |
| 361 (ALYELEGTTV; listed as Homo sapiens) [compound 361] | ″+++″ (≥50% = +++) |
| 125 (VQIHQVAQV; listed as Homo sapiens) [compound 125] | ″+++″ (≥50% = +++) |
| 64 (YAAPGGLIGV; listed as Homo sapiens) [compound 64] | ″++″ (≥20% = ++) |
| 212 (ALWDQDNLSV; listed as Homo sapiens) [compound 212] | ″++″ (≥20% = ++) |
| 354 (LILEGVDTV; listed as Homo sapiens) [compound 354] | ″++″ (≥20% = ++) |
| 267 (ALQDFLLSV; listed as Homo sapiens) [compound 267] | ″+++″ (≥50% = +++) |
| 128 (YLFDDPLSAV; listed as Homo sapiens) [compound 128] | ″++″ (≥20% = ++) |
| 295 (VLDRESPNV; listed as Homo sapiens) [compound 295] | ″+++″ (≥50% = +++) |
| 395 (ALALGGIAVV; listed as Homo sapiens) [compound 395] | ″++++″ (≥75% = ++++) |
| 114 (SLVGEPILQNV; listed as Homo sapiens) [compound 114] | ″++″ (≥20% = ++) |
| 289 (VLLEIEDLQV; listed as Homo sapiens) [compound 289] | ″++++″ (≥75% = ++++) |
| 70 (GLLDYPVGV; listed as Homo sapiens) [compound 70] | ″+++″ (≥50% = +++) |
| 172 (VLYSYTIITV; listed as Homo sapiens) [compound 172] | ″++″ (≥20% = ++) |
| 301 (FLVEDLVDSL; listed as Homo sapiens) [compound 301] | ″+++″ (≥50% = +++) |
| 67 (TLLAEALVTV; listed as Homo sapiens) [compound 67] | ″+++″ (≥50% = +++) |
| 398 (KLLEEDGTIITL; listed as Homo sapiens) [compound 398] | ″++″ (≥20% = ++) |
| 123 (NLWDLTDASVV; listed as Homo sapiens) [compound 123] | ″+++″ (≥50% = +++) |
| 349 (SLTEYLQNV; listed as Homo sapiens) [compound 349] | ″++++″ (≥75% = ++++) |
| 357 (SMHDLVLQV; listed as Homo sapiens) [compound 357] | ″+++″ (≥50% = +++) |
| 39 (SVAPNLPAV; listed as Homo sapiens) [compound 39] | ″+++″ (≥50% = +++) |
| 44 (ILDPISSGFLL; listed as Homo sapiens) [compound 44] | ″++″ (≥20% = ++) |

| Substance | Peptide exchange |
| --- | --- |
| 261 (YVLEFLEEI; listed as Homo sapiens) [compound 261] | ″++″ (≥20% = ++) |
| 21 (VLDELDMEL; listed as Homo sapiens) [compound 21] | ″++″ (≥20% = ++) |
| 322 (TLMTSLPAL; listed as Homo sapiens) [compound 322] | ″+++″ (≥50% = +++) |
| 427 (ALLPLSPYL; listed as Homo sapiens) [compound 427] | ″+++″ (≥50% = +++) |
| 394 (LLAVIGGLVYL; listed as Homo sapiens) [compound 394] | ″+++″ (≥50% = +++) |
| 372 (TMLLNIPLV; listed as Homo sapiens) [compound 372] | ″++″ (≥20% = ++) |
| 426 (RLADKSVLV; listed as Homo sapiens) [compound 426] | ″+++″ (≥50% = +++) |
| 211 (LLWPGAALL; listed as Homo sapiens) [compound 211] | ″++″ (≥20% = ++) |
| 22 (IMEENPGIFAV; listed as Homo sapiens) [compound 22] | ″+++″ (≥50% = +++) |
| 371 (FLQAHLHTA; listed as Homo sapiens) [compound 371] | ″++++″ (≥75% = ++++) |
| 324 (FLYDEIEAEV; listed as Homo sapiens) [compound 324] | ″+++″ (≥50% = +++) |
| 134 (YLQELIFSV; listed as Homo sapiens) [compound 134] | ″+++″ (≥50% = +++) |
| 345 (VIWKALIHL; listed as Homo sapiens) [compound 345] | ″+++″ (≥50% = +++) |
| 327 (GLAPFTEGISFV; listed as Homo sapiens) [compound 327] | ″+++″ (≥50% = +++) |
| 111 (YVWGFYPAEV; listed as Homo sapiens) [compound 111] | ″+++″ (≥50% = +++) |
| 119 (FLYIGDIVSL; listed as Homo sapiens) [compound 119] | ″++++″ (≥75% = ++++) |
| 129 (GLLDGGVDILL; listed as Homo sapiens) [compound 129] | ″+++″ (≥50% = +++) |
| 12 (SLWPDPMEV; listed as Homo sapiens) [compound 12] | ″+++″ (≥50% = +++) |
| 352 (SLLELLHIYV; listed as Homo sapiens) [compound 352] | ″+++″ (≥50% = +++) |
| 193 (QLLDADGFLNV; listed as Homo sapiens) [compound 193] | ″+++″ (≥50% = +++) |
| 45 (SLWQDIPDV; listed as Homo sapiens) [compound 45] | ″+++″ (≥50% = +++) |
| 106 (LLYDAVHIVSV; listed as Homo sapiens) [compound 106] | ″+++″ (≥50% = +++) |
| 284 (ILLSQTTGV; listed as Homo sapiens) [compound 284] | ″+++″ (≥50% = +++) |
| 279 (ALWGGTQPLL; listed as Homo sapiens) [compound 279] | ″++″ (≥20% = ++) |
| 176 (YLMEGSYNKVFL; listed as Homo sapiens) [compound 176] | ″++″ (≥20% = ++) |
| 25 (FLPDEPYIKV; listed as Homo sapiens) [compound 25] | ″+++″ (≥50% = +++) |
| 369 (GLFPEHLIDV; listed as Homo sapiens) [compound 369] | ″+++″ (≥50% = +++) |

The next lines start with the values.

| Peptide exchange | Substance |
| --- | --- |
| ″+++″ (≥50% = +++) | 563 (WLLPYNGVTV; listed as Homo sapiens) [compound 563] |
| ″+++″ (≥50% = +++) | 477 (ALLPASGQIAL; listed as Homo sapiens) [compound 477] |
| ″+++″ (≥50% = +++) | 456 (LLIGHLERV; listed as Homo sapiens) [compound 456] |
| ″+++″ (≥50% = +++) | 481 (GLIEDYEALL; listed as Homo sapiens) [compound 481] |
| ″+++″ (≥50% = +++) | 537 (TLAPGEVLRSV; listed as Homo sapiens) [compound 537] |
| ″+++″ (≥50% = +++) | 595 (VLLSIYPRV; listed as Homo sapiens) [compound 595] |
| ″++″ (≥20% = ++) | 505 (SLAPGDVVRQV; listed as Homo sapiens) [compound 505] |
| ″++″ (≥20% = ++) | 431 (SLVNVVPKL; listed as Homo sapiens) [compound 431] |
| ″+++″ (≥50% = +++) | 596 (ALLDQTKTLAESAL; listed as Homo sapiens) [compound 596] |
| ″+++″ (≥50% = +++) | 442 (GLLGGGGVLGV; listed as Homo sapiens) [compound 442] |
| ″++″ (≥20% = ++) | 458 (SLIDKLYNI; listed as Homo sapiens) [compound 458] |
| ″+++″ (≥50% = +++) | 613 (RLLPPGAVVAV; listed as Homo sapiens) [compound 613] |
| ″+++″ (≥50% = +++) | 498 (KLWTGGLDNTV; listed as Homo sapiens) [compound 498] |
| ″++++″ (≥75% = ++++) | 438 (KLLPLAGLYL; listed as Homo sapiens) [compound 438] |
| ″+++″ (≥50% = +++) | 575 (YLISQVEGHQV; listed as Homo sapiens) [compound 575] |
| ″+++″ (≥50% = +++) | 480 (ALLEDSCHYL; listed as Homo sapiens) [compound 480] |
| ″++++″ (≥75% = ++++) | 576 (ILLNNSGQIKL; listed as Homo sapiens) [compound 576] |
| ″++″ (≥20% = ++) | 432 (TLIEESAKV; listed as Homo sapiens) [compound 432] |
| ″+++″ (≥50% = +++) | 490 (FLLQHVQEL; listed as Homo sapiens) [compound 490] |
| ″+++″ (≥50% = +++) | 430 (HLYSSIEHLTT; listed as Homo sapiens) [compound 430] |
| ″+++″ (≥50% = +++) | 586 (KLKPGDLVGV; listed as Homo sapiens) [compound 586] |
| ″+++″ (≥50% = +++) | 478 (YLLHEKLNL; listed as Homo sapiens) [compound 478] |
| ″+++″ (≥50% = +++) | 488 (FLAEDPKVTL; listed as Homo sapiens) [compound 488] |
